± gives the standard deviation.
Test: protein stability index of a GFP-peptide fusion (GPS, HEK-293T) (PSI 1-6); higher = more stable
[1] = treatment: DMSO, c terminus: a fixed tail appended
[2] = treatment: MLN4924 1 uM, 8 h, c terminus: a fixed tail appended
[3] = treatment: DMSO, c terminus: native
[4] = treatment: MLN4924 1 uM, 8 h, c terminus: native
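Further: 24-mer peptide tiles fused after GFP, lentivirally expressed, FACS-sorted into six equal bins by GFP/DsRed ratio, decoded by Illumina sequencing, PSI is the read-weighted mean bin number.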

Sequence	protein stability index [1]	protein stability index [2]	protein stability index [3]	protein stability index [4]
NQGFLKVERYHNLCQKQVKAQLPR [FBXO28]	2.76 ± 0.47	2.64 ± 0.45		
LFIQKEEQLQQILKRKNKQAFLDE [MNAT1]	2.5 ± 0.47	2.61 ± 0.32		
AAHPPLPLLPPAMGTEPAPSAPEA [TBX6]	5.45 ± 0.24	5.52 ± 0.21		
RDKARLLREKVEFLRSLRQMKQKV [NFE2L1]	2.73 ± 0.15	3.14 ± 0.37		
SLLQKVSPVAHKHLSRQKIDPLLY [TBC1D10A]	2.07 ± 0.19	2.24 ± 0.2		
KRYDGLKYDVKKVEEVVYDLSIRG [TSN]	3.33 ± 0.27	3.29 ± 0.094		
AQLQALRQKEVDFCISLLRERFME [INTS3]	2.61 ± 0.27	2.58 ± 0.59		
MKAHSFVRENVPRVLNSAKEKSST [SOAT1]	4.58 ± 0.12	4.57 ± 0.13		
FSDSSLIEDSQALHKRPKLDSEYY [LURAP1L]	3.86 ± 0.35	3.9 ± 0.21		
AHNSNWYITFQSDTDAQQAFILKR [LARP4]	2.38 ± 0.25	2.4 ± 0.55		
ETAAGKGKGEARARLKRSQSFGVA [SMTNL2]	4.39 ± 0.18	4.71 ± 0.12		
RRASICCTQLGSLSALKHAVLGLY [SCARA5]	2.44 ± 0.38	2.07 ± 0.28		
ELTLSKTDLEMQIESLNEELAYMK [KRT13]	3.66 ± 0.15	3.66 ± 0.35		
HLNAIRGLPGSFIKEVQKGGPADL [PDZK1]	3.56 ± 0.34	3.99 ± 0.19		
LASLVSQGMIQLALSGASQPGPSG [RETREG3]	2.89 ± 1.2	1.99 ± 0.66		
SYQDWQQNLYFNCSSPGVQACSLP [TSPAN10]	2.32 ± 0.28	2.62 ± 0.2		
PAQLSCLPYLEHVGHNHTYNMAPS [NFE2L1]	2.91 ± 0.25	2.96 ± 0.28		
DEMQEVPNRVLAPEQSLKKTKTSE [SPANXN3]	5.57 ± 0.2	5.59 ± 0.24		
PKEEQQQALEQFAAAAAHSTPVRR [EPB41L3]	5.37 ± 0.087	5.22 ± 0.33		
SSHEPCSATCTTGVMSAYAMCVRY [ADAMTSL2]	2.24 ± 0.3	2.32 ± 0.19		
SLEMDSDEDDSEELEEDDGHGAEQ [EHMT1]	5.45 ± 0.27	5.62 ± 0.38		
PNKGLLSDSMTDVPVDTGVAARTP [TPD52L2]	4.9 ± 0.17	4.93 ± 0.16		
GPLPPAPAMVRISKPKTFQAYLDD [YPEL3]	3.73 ± 0.18	4.33 ± 0.37		

Sequence	protein stability index [1]	protein stability index [2]	protein stability index [3]	protein stability index [4]
ADMLKQYFRDLPEPLMTNKLSETF [DLC1]	2.71 ± 0.26	2.86 ± 0.22		
IQMVNESLGYVRSQFLKLKTSVEK [CD207]	3.34 ± 0.21	3.29 ± 0.13		
MKTFVSPEAISPDLVKKIRDFHRK [TRIM15]	3.17 ± 0.13	3.07 ± 0.16		
AHSSSNTIRSGISPNLNVVDGRLT [SASS6]	4.16 ± 0.28	4.31 ± 0.12		
EYVEKETQEKKRLSRTNEELLWKL [MTUS2]	4.04 ± 0.25	4.17 ± 0.22		
FFLFIGVILFSSAVYFAEAEEAES [KCNA1]	2.81 ± 0.18	2.78 ± 0.34		
RKRIHDSRVAGFNPALQLILTRTD [TOR1AIP2]	4.2 ± 0.17	4.18 ± 0.19		
FLMRKCGWFVRELRVEFAAENYLS [FBXO33]	3.06 ± 0.59	2.8 ± 0.35		
LLRAKIEVEKLKAIRLRHDLPEYN [RAD54B]	2.69 ± 0.43	2.75 ± 0.49		
SNVRWDHESVCKYYLCGFCPAELF [LUC7L3]	2.25 ± 0.37	2.29 ± 0.34		
VPDGLGLDEAREEEGDREVVLYG [TRIB3]			4.96 ± 0.33	5.26 ± 0.28
DHPLPEVAHVKHLSASQKALKEKE [COX4I1]	5.43 ± 0.18	5.47 ± 0.17		
ETHRAPDLVQWTRHMEAVKAQLLE [SOAT2]	4.81 ± 0.21	4.53 ± 0.29		
SENCPKVISCEFAHNSNWYITFQS [LARP4]	2.21 ± 0.23	2.08 ± 0.27		
YKVSAASSFFFSGVFVGVISFGQL [SLC22A15]	3.24 ± 0.1	3.25 ± 1.5		
HELTAKYLNYYQGMLDVADESLTD [P3H4]	4.01 ± 0.3	3.89 ± 0.48		
IVGWRCRVGQWVRMENVTVLGEDV [GMPPB]	2.39 ± 0.61	2.15 ± 0.18		
LPAEVAGLSQVLLRGGGQVLLGWT [POMT2]	2.26 ± 0.54	2.26 ± 0.14		
FVERVRKRGFEVVYMTEPIDEYCV [HSP90AB1]		2.53 ± 0.26		
ATVVMMTKLEERSRVKCDQYWPSR [PTPRD]	2.42 ± 0.32	2.17 ± 0.38		
EEKSKQFLDLMETIDKQREEMAKS [LRRC45]	5.28 ± 0.25	5.3 ± 0.16		
AEGRVVGRKDITSILRAPAYPLEL [MOSPD3]	3.27 ± 0.19	3.33 ± 0.18		
IPYWVAYYLALLLSLLVMVISPVI [NSDHL]	2.23 ± 0.31	2.28 ± 0.38		

Sequence	protein stability index [1]	protein stability index [2]	protein stability index [3]	protein stability index [4]
VDGKTIKAQIWDTAGQERYRAITS [RAB11A]	3.34 ± 0.19	3.68 ± 0.22		
ESHSCPQQVPMPPGQEAQRVVCGI [NEK8]	4.15 ± 0.28	4.15 ± 0.12		
IRLVCSRGNRLKTTSWGLLSLGAL [SCNN1D]	3.2 ± 0.45	3.07 ± 0.54		
IMTQLRQEGWIHHLARHAVACFLT [CRY1]	3.02 ± 0.38	2.84 ± 0.61		
DQDDRRTWDGRPLTMAATFDDCLY [GFOD1]	3.74 ± 0.34	3.99 ± 0.22		
LKRSHRESQFLMAKKNFNTNLLE [HESX1]			3.36 ± 0.24	3.62 ± 0.2
YGFYLRAGSEQKGQIIKDIDSGSP [PDZK1]	3.2 ± 0.17	3.17 ± 0.36		
VVPEKLDDLVPKGKKFLLLSINRY [ALG2]	2.07 ± 0.36	2.08 ± 0.42		
PPLREIILGPSSAYTQTQFHNLRN [NFE2L1]	2.47 ± 0.15	2.65 ± 0.4		
ERAIRTQPKQLIVDDLKGSLKEDL [SPRY1]	4.81 ± 0.28	4.85 ± 0.18		
LFPGRVSVDLMLGLPAQQVGPWLG [RSAD1]	2.41 ± 0.86	2.32 ± 0.9		
GNNEDVSFSRPADLDLIQSTPFKP [MFF]	4.36 ± 0.059	5.06 ± 0.56		
PRQVSYTPQHHEKQYAMQRPNDDS [IQUB]	4.78 ± 0.22	4.77 ± 0.12		
SLCKALAQKLTIRLSSRYRYGQLI [TRIP13]	3.01 ± 0.47	3.16 ± 0.66		
YGTQRTLILESQNWRYATGGWETV [FUT8]	2.1 ± 0.13	2.16 ± 0.14		
SFGPQPISRLEQCGINANDVKKLE [RAD51]	4.27 ± 0.18	4.37 ± 0.14		
DDVEMKNGITQGDKLRALKSQRQP [CDC14A]	4.91 ± 0.25	5.05 ± 0.25		
SLQPQQQQQRQRPPRPPPRGTPPR [N4BP2L1]	3.81 ± 0.17	4.16 ± 0.2		
DYNPPRVQLSDEMFVFQDGRWVNE [CBY2]	4.48 ± 0.23	4.37 ± 0.36		
NSEADQLGKIFDLIGLPPEDDWPR [CDK4]	3.7 ± 0.35	3.92 ± 0.23		
SHRPNMELCRDAAQFRLLSEVEEL [TEKT4]	3.82 ± 0.3	3.72 ± 0.05		
QTLLGTAKMLLHEGQHPAQLRSDV [PYCR3]	3.28 ± 0.094	3.16 ± 0.39		
SPPPAPTSSTFGLQDGNLRAPHKE [CHCHD6]	5.11 ± 0.5	5.32 ± 0.14		

Sequence	protein stability index [1]	protein stability index [2]	protein stability index [3]	protein stability index [4]
FAPQTGARPSETFARFCKSQESAL [DNAAF3]	2.5 ± 0.45	2.76 ± 0.52		
ELYVFGGVRSREDAQGSEMVTCKS [GAN]	4.08 ± 0.38	4.15 ± 0.34		
PAATWNLEEKRLTWRLPDVSEAGG [FCHO1]	4.49 ± 0.24	4.58 ± 0.25		
AYPFYWAWLPQAKVPFSQEIKDLI [PI4K2A]	2.23 ± 0.32	2.13 ± 0.14		
LLQDKQFELALQLAEMKDDSDSEK [VPS39]	5.19 ± 0.23	5.17 ± 0.26		
YVINWFMSFGPEIKLNTSQQGRNQ [FAM104B]	2.67 ± 1.7	2.53 ± 0.71		
QFANLVLHQTVERIHVGKKYGDIP [LSM1]	2.13 ± 0.22	2.09 ± 0.23		
VILEVSLEGSHDTANCEACTLGIC [RTP4]	3.86 ± 0.13	3.78 ± 0.28		
PQKTYSVKVLAFTSIGDGPLSSDI [PTPRD]	2.17 ± 0.29	1.89 ± 0.3		
PANCPACREPSPKMDFKTNILLKN [TRIM43]	3.38 ± 0.25	3.52 ± 0.21		
MGYMLFNERMLESYLHAKKYLKPS [CARM1]	2.35 ± 0.17	2.08 ± 0.32		
KKPPVTFAEKGELRKSIFSESRKP [TRIM29]	4.13 ± 0.23	4.19 ± 0.19		
EANSSNSQKNEKALTNIQNCMAEK [C8orf76]	4.96 ± 0.38	4.58 ± 0.37		
NLDANLAFASFTSGVVRIWDLRDQ [TLE6]	2.3 ± 0.28	2.36 ± 0.33		
RDHSVRVLISNHVTPFDHNIVNLL [AUP1]	2.1 ± 0.16	2.12 ± 0.31		
RRHPQGAWKELDRNYLNYGEEGAP [CHGB]	4.05 ± 0.28	4.1 ± 0.34		
KVEKMLISSIKEKYPSHSFIGEES [IMPA1]	3.26 ± 0.2	3.17 ± 0.14		
LMQLQDIQYLTENIWASQSVLSAC [IQUB]	2.67 ± 0.42	2.24 ± 0.37		
SSESSSDSDNSGGGGGGGGGGGGG [ANKRD17]	5.59 ± 0.27	5.7 ± 0.12		
MGESSEDIDQMFSTLLGEMDLLTQ [APBB1IP]	4.25 ± 0.11	4.08 ± 0.32		

Reference: the supplement of paper PMC10567573
